This is an account of results in patent US20070253950A1 (Pfizer, published 2007).

The target of test [1] is T1, human RAGE-strep tag fusion protein (human, UniProt Q15109 23-344).
T1 construct: monomeric soluble human RAGE; also called hRAGE-SA; soluble human streptavidin-tagged RAGE
The test can be described thus: BIACORE capture assay: hRAGE-SA over antibody captured on anti-human Fc; 1:1 Langmuir global fit; FC2. The method, then:
(§1) The assays were performed by coating anti-human Fc antibodies onto a CM5 BIA chip with 5000 RU (pH 5.0, 7 min.) in flow cells 1-4. Each antibody was captured by flowing at 2.0 μg/ml over the anti-Fc antibodies in flow cells 2-4 (flow cell 1 was used as a reference).

Test [2] has as its target T1, human RAGE-strep tag fusion protein. As to the kind of experiment: BIACORE capture assay: hRAGE-SA over antibody captured on anti-human Fc; steady state affinity; FC3. On the procedure: as §1
Test [3] has as its target T2, human RAGE-Fc fusion protein (human, UniProt Q15109 23-344).
T2 construct: amino acids 1-344 of human RAGE appended to the Fc domain of human IgG; also called hRAGE-Fc; huRAGE-Fc
As to the kind of experiment: ligand competition ELISA, panel 'Blocks hRAGE-Fc interaction with S100-B'; blocked ligand S100-B.

Test [4] has as its target T1, human RAGE-strep tag fusion protein. The test can be described thus: BIACORE capture assay: hRAGE-SA over antibody captured on anti-human Fc; steady state affinity; average of FC2-FC4. The method, then: as §1
Test [5] addresses T3, murine RAGE-strep tag fusion protein (murine, UniProt Q62151 23-343).
T3 construct: also called mRAGE-strep; mRAGE-SA
T3 chain: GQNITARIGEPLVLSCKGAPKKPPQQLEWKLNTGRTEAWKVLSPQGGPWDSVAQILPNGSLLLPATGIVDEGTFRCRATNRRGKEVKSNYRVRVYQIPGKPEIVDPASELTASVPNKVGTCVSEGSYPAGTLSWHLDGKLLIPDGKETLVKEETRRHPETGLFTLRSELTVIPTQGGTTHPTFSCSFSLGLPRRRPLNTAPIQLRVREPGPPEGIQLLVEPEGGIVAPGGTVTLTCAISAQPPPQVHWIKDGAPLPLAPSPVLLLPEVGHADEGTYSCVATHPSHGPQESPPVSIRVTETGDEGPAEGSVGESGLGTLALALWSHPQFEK
The test can be described thus: BIACORE capture assay: mRAGE-SA (SA-Mu RAGE) over antibody captured on anti-human Fc; 1:1 Langmuir global fit; FC2. On the procedure:
as §1

Test [6] concerns the target T1, human RAGE-strep tag fusion protein. As to the kind of experiment: BIACORE capture assay: hRAGE-SA over antibody captured on anti-human Fc; steady state affinity; FC2. The method, then:
as §1

Test [7] has the same target. As to the kind of experiment: BIACORE capture assay: hRAGE-SA over antibody captured on anti-human Fc; 1:1 Langmuir global fit; FC4. On the procedure:
as §1

The target in test [8] is T2, human RAGE-Fc fusion protein. The test can be described thus: ligand competition ELISA, panel 'Blocks hRAGE-Fc interaction with A-beta'; blocked ligand amyloid beta 1-42 peptide.
The target of test [9] is T1, human RAGE-strep tag fusion protein. The test can be described thus: BIACORE, antibody coated on CM5 chip, hRAGE-SA in flow. On the procedure: The assays were performed by coating antibodies onto a CM5 BIA chip with 5000-7000 RU.
Test [10] has the same target. The test can be described thus: BIACORE capture assay: hRAGE-SA over antibody captured on anti-human Fc; 1:1 Langmuir global fit; FC3. The method, then:
as §1

Test [11] deals with T2, human RAGE-Fc fusion protein. The test can be described thus: ligand competition ELISA, panel 'Blocks hRAGE-Fc interaction with S100-A'; blocked ligand S100-A.

B1: chimeric XT-M4 (antibody, V domains shown)
VH: EVQLVESGGGLVQPGRSLKLSCVVSGFTFNNYWMTWIRQTPGKGLEWVASINNSGDNTYYPDSVKDRFTISRDNAKSTLYLQMNSLRSEDTATYYCTRGGDITTGFDYWGQGVMVTVSS
VL: DIQMTQSPSSMSVSLGDTITITCRASQDVGIYVNWFQQKPGKSPRRMIYRATNLADGVPSRFSGSRSGSIYSLTISSLESEDVADYHCLEFDEHPLTFGSGTKVEIK
modifications: N-linked oligosaccharide at Asn52 (CDR2) on part of the heavy chains
notes: rat XT-M4 variable regions fused to human kappa light chain and human IgG1 heavy chain constant regions; L234A and G237A in the human IgG1 Fc region; also called chimeric antibody XT-M4; XT-M4-A-1
In the case of B1, the equilibrium dissociation constant (Kd) in test [1] stood at 8.2 nM; in test [2] it was 11 nM; in test [4] it was 11 nM; in test [5], 1.9 nM; in test [6], 11 nM; in test [7], 8.2 nM. For the same molecule, the values for the equilibrium dissociation constant (Kd) in [9] and in test [10] were 5.66 nM and 7.33 nM, respectively. Also, the off-rate constant (koff) came to 0.0281 s⁻¹ in test [1]; 0.0042 s⁻¹ in [5]; 0.05 s⁻¹ in test [7]; 0.0248 s⁻¹ in test [9]; 0.0271 s⁻¹ in [10]. Further, the on-rate constant (kon) in [1] amounted to 3.42e+06 M⁻¹ s⁻¹; in test [5], 2.2e+06 M⁻¹ s⁻¹; in test [7], 6.1e+06 M⁻¹ s⁻¹; in test [9], 4.39e+06 M⁻¹ s⁻¹; in test [10], 3.7e+06 M⁻¹ s⁻¹. Besides, the figures for the “IC50 (read off the curve)” value in [3], in [8] and in test [11] were ~0.08 µg/mL, ~0.1 µg/mL and ~0.08 µg/mL, respectively. The molecule also came in with a Ka in test [9] of 1.77e+08 M⁻¹.
